Where a SMILES comes first, the peptide text is derived from it. [ ]: non-standard residue; d: D form. The star is where a group is joined. Gly(N(CH2)2(3-indolyl)) = O=C(O)CNCCc1c[nH]c2ccccc12; N(indol-3-ylmethyl)Gly = O=C(O)CNCc1c[nH]c2ccccc12; 2Nal = N[C@@H](Cc1ccc2ccccc2c1)C(=O)O; d2Nal = N[C@H](Cc1ccc2ccccc2c1)C(=O)O; Dab = NCC[C@H](N)C(=O)O; Bz = O=C(c1ccccc1)*; NPr2 = CCCN(CCC)*
T1: Melatonin receptor MT2R (UniProt P49286)
T1 sequence: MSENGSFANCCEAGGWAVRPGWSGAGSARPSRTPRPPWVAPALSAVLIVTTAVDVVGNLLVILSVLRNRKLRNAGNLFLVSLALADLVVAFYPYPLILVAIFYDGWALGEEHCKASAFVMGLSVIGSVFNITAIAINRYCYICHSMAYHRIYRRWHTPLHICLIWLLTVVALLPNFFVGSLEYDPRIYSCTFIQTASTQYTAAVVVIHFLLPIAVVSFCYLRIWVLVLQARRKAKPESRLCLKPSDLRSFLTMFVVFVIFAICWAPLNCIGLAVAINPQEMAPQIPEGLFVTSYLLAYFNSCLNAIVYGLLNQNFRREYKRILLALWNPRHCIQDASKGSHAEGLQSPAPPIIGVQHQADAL


Legend:
[1] = biological target: T2, human recombinant MC1 receptor (Homo sapiens, UniProt Q01726); experiment: MC1R activation, cAMP HTRF assay in CHO-K1 cells; format: cell-based
T2 construct: host or cells: CHO-K1
Method: MCR-activation assays were performed by means of a cAMP HTRF (homogeneous time resolved fluorescence) assay for Gs-coupled receptors (cAMP Gs dynamic kit, Cisbio bioassays, 62AM4PEC). CHO-K1 cells expressing human recombinant MC1 receptor (EuroscreenFast, Gosselies, Belgium) (or MC2R, MC3R, MC4R, MC5R) were grown prior to the test in media without antibiotic. They were detached by gentle flushing with PBS-EDTA (5 mM EDTA), recovered by centrifugation, and resuspended in assay buffer (5 mM KCl, 1.25 mM MgSO4, 124 mM NaCl, 25 mM HEPES, 13.3 mM Glucose, 1.25 mM KH2PO4, 1.45 mM CaCl2, 0.5 g/L BSA, supplemented with 1 mM IBMX). Dose response curves were performed in parallel with the reference compounds. For agonist test (96-well), 12 µL of cells were mixed with 12 µL of the test compound diluted at increasing concentrations in assay buffer, and then incubated for 30 min at room temperature. After addition of the lysis buffer and 1 h incubation, fluorescence signal was measured, according to the manufacturer’s specifications, with the homogeneous time resolved fluorescence (HTRF) kit.

[2] = system: B16 murine melanoma cells; experiment: Total melanin synthesis in mouse melanoma cells; format: cell-based; conditions: 72 h incubation
Method: B16 murine melanoma cells, which are highly responsive towards stimulation with alpha-melanocyte stimulating hormone (alpha-MSH), were grown in Dulbecco’s modified eagle medium (DMEM) with 1 g/L glucose supplemented with 3 g/L glucose, 2 mM L-glutamine, 50 U/mL Penicillin, 50 µg/mL Streptomycin, and 10% fetal calf serum. They were kept at 37 °C in a 5% CO2 atmosphere. Cells were grown for 24 h and then medium was replaced with medium containing the test or reference (NDP-alpha-MSH) compounds. After 72 h, total (intracellular and extracellular) melanin content was determined by absorbance spectroscopy at 405 nm. The results were quantified against a melanin standard curve.
Figure 1 Total melanin synthesis in mouse melanoma cells stimulated with MC1R-agonist peptides. MC1R-agonist peptides were incubated at various concentrations together with the near confluent mouse melanoma cell line B16F10. NDP-alpha-MSH at 100 nM was used as the reference and set to 100% melanin (red line). Error bars represent standard error of the mean of three experiments.

[3] = system: human abdominal skin ex vivo; experiment: Stimulation of pigmentation in human abdominal skin ex vivo (Fontana-Masson melanin quantification); format: cell-based; conditions: 200 µM peptide, topical, six days
Method: Following declaration of Helsinki principles (DoH-Oct2013, World Medical Association, Ferney-Voltaire, France), human skin samples were obtained from elective plastic surgery after informed consent was obtained. For the two experiments shown in Figure 2, Figure 3 and Figure 4, we had one person with an individual topology angle (ITA°) of 18, and one person with an ITA° of 39 [69]. The skin samples were cut in pieces of 8 × 3 mm and cultured up to day 6. Skin samples were cultured in an air–liquid interface in a perforated ring of stainless steel in contact with culture medium (modified Williams’ E medium). The culture medium was renewed every three days (i.e., day 0–3). Compounds were added daily in DMSO at 4 µL volume. At day 6, the skin samples were fixed in formalin, embedded in paraplast, and cut at the microtome for histochemical staining and consequent image analysis. Six skin biopsies were used for each single treatment.
Two skin biopsies for each treatment were weighed and, in each case, reduced in the dermal portion, in order to have approximately the same weight for all of them. Samples were then washed and processed with methylthiazolyldiphenyl-tetrazolium bromide (MTT). The color intensity, that is directly proportional to skin vitality, was measured with a plate reader at a wavelength of 570 nm. For melanin quantification, skin sections were stained with a modified Fontana-Masson stain that dyes melanin argentaffin granules in black/dark grey. The amount of melanin present in each slide was evaluated by estimating grey intensity and distribution within the sections using ImageJ application (NIH-USA). Two slides of each skin sample were processed by image acquisition and related analysis (i.e., 12 images for each treatment).
Figure 2 Stimulation of pigmentation by MC1R-agonist peptides ex vivo. Melanin was quantified on skin sections using ImageJ software (NIH, USA). Human abdominal skin was topically treated with peptides at various concentrations for six days. * p < 0.05 vs vehicle by unpaired Student’s t-test. […]

other MCRs = system: other MCRs; parameters: method as in PMID 12591094, PMID 12576087; conditions: MCRs besides MC1R; cited from earlier work
[4] = biological target: Melanocortin-1 receptor (MC1R), human recombinant, in CHO-K1 cells (human) (UniProt Q01726)
[5] = biological target: Melanocortin-1 receptor (MC1R), human recombinant, in CHO-K1 cells (human) (UniProt Q01726); remark: listed apart in the source
[6] = biological target: Opioid receptor OP2R (human kappa opioid receptor) (human) (UniProt P41145)
[7] = biological target: Melanocortin-4 receptor (MC4R), recombinant, in CHO-K1 cells (human) (UniProt P32245)
[8] = biological target: Opioid receptor OP3R (human mu opioid receptor) (human) (UniProt P35372)
[9] = biological target: Melanin-concentrating hormone receptor MCH2R, human (human) (UniProt Q969V1)
[10] = biological target: Melanin-concentrating hormone receptor MCH1R, human (human) (UniProt Q99705)
Melatonin receptor MT2R = biological target: T1, Melatonin receptor MT2R
[11] = biological target: Opioid receptor OP1R (human delta opioid receptor) (human) (UniProt P41143)
[12] = biological target: Melanocortin-2 receptor (MC2R), recombinant, in CHO-K1 cells (human) (UniProt Q01718)
[13] = biological target: Serotonin receptor 5-HT2AR, human (human) (UniProt P28223)
[14] = biological target: Endothelin B-receptor (ETBR), human (human) (UniProt P24530)
[15] = biological target: Melanocortin-3 receptor (MC3R), recombinant, in CHO-K1 cells (human) (UniProt P41968)
Melatonin receptor MT1R = Melatonin receptor MT1R (UniProt P48039)
[16] = biological target: Melanocortin-5 receptor (MC5R), recombinant, in CHO-K1 cells (human) (UniProt P33032)
Chain of Melanocortin-5 receptor (MC5R), recombinant, in CHO-K1 cells (human) (P33032 whole entry): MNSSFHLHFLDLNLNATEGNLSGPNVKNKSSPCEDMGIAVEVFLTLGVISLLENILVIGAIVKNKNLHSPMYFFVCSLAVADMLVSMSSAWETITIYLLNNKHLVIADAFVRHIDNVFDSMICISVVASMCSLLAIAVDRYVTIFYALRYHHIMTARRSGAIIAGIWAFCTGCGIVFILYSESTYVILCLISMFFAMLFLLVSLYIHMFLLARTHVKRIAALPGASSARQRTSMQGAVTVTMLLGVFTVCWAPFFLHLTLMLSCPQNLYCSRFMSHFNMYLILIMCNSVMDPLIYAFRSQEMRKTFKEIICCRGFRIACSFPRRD

T2 sequence (Q01726 whole entry): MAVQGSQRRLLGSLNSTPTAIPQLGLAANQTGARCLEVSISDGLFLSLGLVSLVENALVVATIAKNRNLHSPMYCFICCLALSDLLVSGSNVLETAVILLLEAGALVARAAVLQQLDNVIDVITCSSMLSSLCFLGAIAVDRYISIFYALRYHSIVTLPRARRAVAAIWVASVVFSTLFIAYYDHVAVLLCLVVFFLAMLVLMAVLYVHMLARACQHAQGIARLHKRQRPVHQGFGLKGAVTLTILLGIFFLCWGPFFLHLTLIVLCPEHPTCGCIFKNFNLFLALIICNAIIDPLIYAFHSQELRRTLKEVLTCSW
Chain of Melanocortin-1 receptor (MC1R), human recombinant, in CHO-K1 cells (human) (Q01726 whole entry): as above
Chain of Melanocortin-3 receptor (MC3R), recombinant, in CHO-K1 cells (human) (P41968 whole entry): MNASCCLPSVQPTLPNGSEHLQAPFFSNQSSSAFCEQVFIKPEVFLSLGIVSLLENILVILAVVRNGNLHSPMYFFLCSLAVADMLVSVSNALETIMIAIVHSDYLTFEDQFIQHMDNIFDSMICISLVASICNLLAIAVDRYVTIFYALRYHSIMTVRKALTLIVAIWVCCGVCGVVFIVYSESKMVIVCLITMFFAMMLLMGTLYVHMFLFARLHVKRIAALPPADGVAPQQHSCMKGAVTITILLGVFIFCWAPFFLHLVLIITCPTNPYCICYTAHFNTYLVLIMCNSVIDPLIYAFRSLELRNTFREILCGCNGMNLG
Chain of Melanocortin-2 receptor (MC2R), recombinant, in CHO-K1 cells (human) (Q01718 whole entry): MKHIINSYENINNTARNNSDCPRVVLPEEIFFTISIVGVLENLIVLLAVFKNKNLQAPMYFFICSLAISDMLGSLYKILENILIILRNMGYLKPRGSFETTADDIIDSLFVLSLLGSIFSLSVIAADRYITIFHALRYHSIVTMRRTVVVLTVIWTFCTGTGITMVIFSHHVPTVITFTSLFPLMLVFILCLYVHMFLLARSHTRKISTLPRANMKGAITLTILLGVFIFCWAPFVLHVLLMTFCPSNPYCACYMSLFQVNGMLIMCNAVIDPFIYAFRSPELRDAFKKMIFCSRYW
Chain of Melanin-concentrating hormone receptor MCH1R, human (human) (Q99705 whole entry): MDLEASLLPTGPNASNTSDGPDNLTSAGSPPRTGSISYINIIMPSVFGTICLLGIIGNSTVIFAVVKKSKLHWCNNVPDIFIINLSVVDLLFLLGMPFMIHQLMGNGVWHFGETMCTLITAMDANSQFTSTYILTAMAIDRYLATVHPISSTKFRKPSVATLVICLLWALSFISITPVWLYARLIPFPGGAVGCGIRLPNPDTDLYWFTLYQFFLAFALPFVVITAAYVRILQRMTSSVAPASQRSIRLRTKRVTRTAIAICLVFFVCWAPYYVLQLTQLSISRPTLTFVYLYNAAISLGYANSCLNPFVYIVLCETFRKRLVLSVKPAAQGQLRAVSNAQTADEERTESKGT
Chain of Endothelin B-receptor (ETBR), human (human) (P24530 27-442): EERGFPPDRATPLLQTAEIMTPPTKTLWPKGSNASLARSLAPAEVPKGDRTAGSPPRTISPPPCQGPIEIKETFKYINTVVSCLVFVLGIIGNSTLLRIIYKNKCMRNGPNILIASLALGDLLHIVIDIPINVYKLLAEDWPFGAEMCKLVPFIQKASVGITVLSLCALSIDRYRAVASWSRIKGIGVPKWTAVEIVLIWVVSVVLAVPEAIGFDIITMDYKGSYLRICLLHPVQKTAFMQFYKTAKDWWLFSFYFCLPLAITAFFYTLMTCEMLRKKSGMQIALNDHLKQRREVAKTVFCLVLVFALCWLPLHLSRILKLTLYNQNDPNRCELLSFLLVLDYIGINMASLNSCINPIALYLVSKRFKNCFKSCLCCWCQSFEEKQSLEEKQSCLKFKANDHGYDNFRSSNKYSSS
Chain of Melanocortin-4 receptor (MC4R), recombinant, in CHO-K1 cells (human) (P32245 whole entry): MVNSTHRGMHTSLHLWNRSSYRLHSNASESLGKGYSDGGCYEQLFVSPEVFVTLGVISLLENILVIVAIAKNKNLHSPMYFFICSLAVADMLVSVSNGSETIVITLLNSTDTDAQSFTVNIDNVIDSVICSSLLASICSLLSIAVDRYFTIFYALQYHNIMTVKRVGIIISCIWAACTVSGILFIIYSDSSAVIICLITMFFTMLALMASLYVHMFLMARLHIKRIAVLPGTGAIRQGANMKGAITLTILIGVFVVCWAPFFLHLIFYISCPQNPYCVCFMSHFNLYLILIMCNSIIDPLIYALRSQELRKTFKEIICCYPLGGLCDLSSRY
Chain of Melanin-concentrating hormone receptor MCH2R, human (human) (Q969V1 whole entry): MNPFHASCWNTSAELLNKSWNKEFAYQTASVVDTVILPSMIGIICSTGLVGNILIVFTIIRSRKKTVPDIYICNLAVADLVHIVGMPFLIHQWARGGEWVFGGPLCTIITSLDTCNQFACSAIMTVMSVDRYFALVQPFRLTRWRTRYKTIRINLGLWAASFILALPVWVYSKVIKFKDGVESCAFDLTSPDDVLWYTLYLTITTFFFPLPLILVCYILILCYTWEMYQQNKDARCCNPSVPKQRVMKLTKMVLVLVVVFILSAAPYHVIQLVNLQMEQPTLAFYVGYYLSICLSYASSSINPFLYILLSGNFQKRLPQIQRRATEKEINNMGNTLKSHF
Chain of Melatonin receptor MT1R (P48039 whole entry): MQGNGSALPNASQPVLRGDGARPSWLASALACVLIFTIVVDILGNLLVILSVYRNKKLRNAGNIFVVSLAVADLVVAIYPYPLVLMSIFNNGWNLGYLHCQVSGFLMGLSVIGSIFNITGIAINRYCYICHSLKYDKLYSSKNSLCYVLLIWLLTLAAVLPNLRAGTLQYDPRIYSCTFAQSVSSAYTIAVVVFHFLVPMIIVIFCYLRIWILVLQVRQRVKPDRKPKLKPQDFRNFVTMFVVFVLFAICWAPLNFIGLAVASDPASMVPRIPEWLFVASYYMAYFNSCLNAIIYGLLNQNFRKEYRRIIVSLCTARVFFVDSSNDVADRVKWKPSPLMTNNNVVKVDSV

Row | Molecule | EC50 [1] [nM] | Concentration at which maximal melanin synthesis activity comparable to 100 nM NDP-alpha-MSH is reached [2] | EC50 of MC1R activation (cAMP HTRF assay, CHO-K1 cells expressing human MC1R) [4] [nM] | further results
1 | N=C(N)NCCC[C@H](NC(=O)[C@@H](Cc1ccccc1)NC(=O)[C@H](Cc1c[nH]cn1)NC(=O)CNC(=O)c1ccccc1)C(=O)N[C@@H](Cc1c[nH]c2ccccc12)C(N)=O [Peptide 1] (Bz-GH[dF]RW-NH2) | 0.041 | around 12.3 nM |  | Stimulation of pigmentation compared to vehicle-treated control tissue [3]: up to 21%
2 | N=C(N)NCCC[C@H](NC(=O)[C@@H](Cc1ccccc1)NC(=O)[C@H](Cc1c[nH]cn1)NC(=O)CNC(=O)c1ccccc1)C(=O)N[C@@H](Cc1ccc2ccccc2c1)C(N)=O [Peptide 2] (Bz-GH[dF]R[2Nal]-NH2) | 0.11 | around 12.3 nM |  | 
3 | N=C(N)NCCC[C@H](NC(=O)[C@@H](Cc1ccccc1)NC(=O)[C@H](Cc1c[nH]cn1)NC(=O)CNC(=O)c1ccccc1)C(=O)N[C@H](Cc1ccc2ccccc2c1)C(N)=O [Peptide 3] (Bz-GH[dF]R[d2Nal]-NH2) | 0.25 | around 12.3 nM |  | 
4 | CCCN(CCC)C(=O)[C@H](Cc1c[nH]c2ccccc12)NC(=O)[C@H](CCCNC(=N)N)NC(=O)[C@@H](Cc1ccccc1)NC(=O)[C@H](Cc1c[nH]cn1)NC(=O)CNC(=O)c1ccccc1 [Peptide 5] (Bz-GH[dF]RW-NPr2) | 0.88 |  |  | 
5 | N=C(N)NCCC[C@H](NC(=O)[C@@H](Cc1ccccc1)NC(=O)[C@H](Cc1c[nH]cn1)NC(=O)CNC(=O)c1ccccc1)C(=O)N[C@H](Cc1ccccc1)C(N)=O [Peptide 6] (Bz-GH[dF]R[dF]-NH2) | 1.79 | > 111 nM |  | 
6 | N=C(N)NCCC[C@H](NC(=O)[C@@H](Cc1ccccc1)NC(=O)[C@H](Cc1c[nH]cn1)NC(=O)CNC(=O)c1ccccc1)C(=O)N(CCc1c[nH]c2ccccc12)CC(N)=O [Peptide 7] (Bz-GH[dF]R[Gly(N(CH2)2(3-indolyl))]-NH2) |  | > 111 nM |  | 
7 | NCC[C@H](NC(=O)[C@@H](Cc1ccccc1)NC(=O)[C@H](Cc1c[nH]cn1)NC(=O)CNC(=O)c1ccccc1)C(=O)N[C@@H](Cc1c[nH]c2ccccc12)C(N)=O [Peptide 8] (Bz-GH[dF][Dab]W-NH2) | 7.51 | > 111 nM |  | 
8 | Ac-Ser-Tyr-Ser-Met-Glu-His-Phe-Arg-Trp- Gly-Lys-Pro-Val-NH2 [alpha-MSH] |  |  |  | Potency among other MCRs (other MCRs): ≤ 5 nM
9 | MC1R-agonist pentapeptide 2 (Bz-Gly-His-D-Phe-Arg-L-NaphAla-NH2) |  |  | 0.11 | 
10 | MC1R-agonist pentapeptide 3 (Bz-Gly-His-D-Phe-Arg-D-NaphAla-NH2) |  |  | 0.25 | 
11 | MC1R-agonist pentapeptide 8 (Bz-Gly-His-D-Phe-Dab-L-Trp-NH2) |  |  | 7.51 | 
12 | NDP-alpha-MSH [Nle^4, D-Phe^7] (peptide) |  |  |  | EC50 of MC1R activation (cAMP production, recombinant CHO-MC1R cell line; control compound) [5]: 0.071 nM
13 | Bz-GH[dF]R[dF]-NH2 (SMILES N=C(N)NCCC[C@H](NC(=O)[C@@H](Cc1ccccc1)NC(=O)[C@H](Cc1c[nH]cn1)NC(=O)CNC(=O)c1ccccc1)C(=O)N[C@H](Cc1ccccc1)C(N)=O) [MC1R-agonist pentapeptide 6 (Bz-Gly-His-D-Phe-Arg-D-Phe-NH2)] |  |  | 1.79 | 
14 | Bz-GH[dF]RW-NPr2 (SMILES CCCN(CCC)C(=O)[C@H](Cc1c[nH]c2ccccc12)NC(=O)[C@H](CCCNC(=N)N)NC(=O)[C@@H](Cc1ccccc1)NC(=O)[C@H](Cc1c[nH]cn1)NC(=O)CNC(=O)c1ccccc1) [MC1R-agonist pentapeptide 5 (Bz-Gly-His-D-Phe-Arg-L-Trp-N(Propyl)2)] |  |  | 0.88 | 
15 | Bz-GH[dF]RW-NH2 (SMILES N=C(N)NCCC[C@H](NC(=O)[C@@H](Cc1ccccc1)NC(=O)[C@H](Cc1c[nH]cn1)NC(=O)CNC(=O)c1ccccc1)C(=O)N[C@@H](Cc1c[nH]c2ccccc12)C(N)=O) [MC1R-agonist pentapeptide 1 (Bz-Gly-His-D-Phe-Arg-L-Trp-NH2)] |  |  | 0.041 | 
16 | Bz-GH[dF]R[N(indol-3-ylmethyl)Gly]-NH2 [MC1R-agonist pentapeptide 7 (Bz-Gly-His-D-Phe-Arg-[N-(CH2-3-indolyl)Gly]-NH2)] |  |  | 4.4 | 
17 | Bz-GH[dF]R[dW]-NPr2 (SMILES CCCN(CCC)C(=O)[C@@H](Cc1c[nH]c2ccccc12)NC(=O)[C@H](CCCNC(=N)N)NC(=O)[C@@H](Cc1ccccc1)NC(=O)[C@H](Cc1c[nH]cn1)NC(=O)CNC(=O)c1ccccc1) [MC1R-agonist pentapeptide 4 (Bz-Gly-His-D-Phe-Arg-D-Trp-N(Propyl)2)] |  |  | 0.42 | EC50 of receptor activation (GTPγ[35S] scintillation proximity assay on CHO-K1 membrane preparations; eight concentrations from 0.01 to 100,000 nM) [6]: > 100000 nM; EC50 of receptor activation (cAMP HTRF assay, CHO-K1 cells; eight concentrations from 0.01 to 100,000 nM) [7]: 136 nM; EC50 of receptor activation (GTPγ[35S] scintillation proximity assay on CHO-K1 membrane preparations; eight concentrations from 0.01 to 100,000 nM) [8]: > 100000 nM; EC50 of receptor activation (Aequorin assay, recombinant cells; eight concentrations from 0.01 to 100,000 nM) [9]: > 100000 nM; EC50 of receptor activation (Aequorin assay, recombinant cells; eight concentrations from 0.01 to 100,000 nM) [10]: > 100000 nM; EC50 of receptor activation (GTPγ[35S] scintillation proximity assay on CHO-K1 membrane preparations; eight concentrations from 0.01 to 100,000 nM) (Melatonin receptor MT2R): > 100000 nM; EC50 of receptor activation (GTPγ[35S] scintillation proximity assay on CHO-K1 membrane preparations; eight concentrations from 0.01 to 100,000 nM) [11]: > 100000 nM; EC50 of receptor activation (cAMP HTRF assay, CHO-K1 cells; eight concentrations from 0.01 to 100,000 nM) [12]: > 100000 nM; EC50 of receptor activation (Aequorin assay, recombinant cells; eight concentrations from 0.01 to 100,000 nM) [13]: > 100000 nM; EC50 of receptor activation (Aequorin assay, recombinant cells; eight concentrations from 0.01 to 100,000 nM) [14]: > 100000 nM; EC50 of receptor activation (cAMP HTRF assay, CHO-K1 cells; eight concentrations from 0.01 to 100,000 nM) [15]: 877 nM; EC50 of receptor activation (GTPγ[35S] scintillation proximity assay on CHO-K1 membrane preparations; eight concentrations from 0.01 to 100,000 nM) (Melatonin receptor MT1R): > 100000 nM; EC50 of receptor activation (cAMP HTRF assay, CHO-K1 cells; eight concentrations from 0.01 to 100,000 nM) [16]: > 100000 nM

Source: PMC6940745 (International Journal of Molecular Sciences, 2019)
